The values below are quoted from earlier work in PMC8714859.

For data set [1], the target named is interleukin-34 (Homo sapiens) (UniProt Q6ZMJ4).
The target of data set [2] is M-CSF (Homo sapiens) (UniProt P09603).
Sequence of UniProt P09603 (P09603 33-190): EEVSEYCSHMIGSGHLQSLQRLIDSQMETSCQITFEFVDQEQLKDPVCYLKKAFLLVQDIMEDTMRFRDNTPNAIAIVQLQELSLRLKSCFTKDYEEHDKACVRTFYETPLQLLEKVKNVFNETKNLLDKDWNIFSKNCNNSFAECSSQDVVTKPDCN

Sequence of UniProt Q6ZMJ4 (Q6ZMJ4 21-242): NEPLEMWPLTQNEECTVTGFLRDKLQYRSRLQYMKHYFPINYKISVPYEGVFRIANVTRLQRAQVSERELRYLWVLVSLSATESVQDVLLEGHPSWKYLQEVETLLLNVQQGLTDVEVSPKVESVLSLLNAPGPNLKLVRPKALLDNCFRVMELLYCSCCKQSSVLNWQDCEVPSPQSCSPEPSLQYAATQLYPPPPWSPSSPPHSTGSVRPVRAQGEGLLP

For the substance M-CSF receptor (from UniProt P07333), the Kd – broadly, the free concentration of one partner at which half of the binding sites on the other are occupied at equilibrium, for simple one-to-one binding – is 0.001 nM in data set [1] and 0.034 nM in data set [2].
